Laboratory results as given in the supplement of paper PMC10065799, “High-throughput profiling of sequence recognition by tyrosine kinases and SH2 domains using bacterial peptide display” (eLife, 2023).

Legend:
AncSZ = test: phosphorylation enrichment, bacterial display (enrichment ratio); higher = better substrate or ligand; peptides without Tyr show the background
EPHB1 = EPHB1 (UniProt P54762); test: as above
EPHB2 = EPHB2 (UniProt P29323); test: as above
FGFR1 = FGFR1 (UniProt P11362); test: as above
Sequence of FGFR1 (P11362 whole entry, looked up): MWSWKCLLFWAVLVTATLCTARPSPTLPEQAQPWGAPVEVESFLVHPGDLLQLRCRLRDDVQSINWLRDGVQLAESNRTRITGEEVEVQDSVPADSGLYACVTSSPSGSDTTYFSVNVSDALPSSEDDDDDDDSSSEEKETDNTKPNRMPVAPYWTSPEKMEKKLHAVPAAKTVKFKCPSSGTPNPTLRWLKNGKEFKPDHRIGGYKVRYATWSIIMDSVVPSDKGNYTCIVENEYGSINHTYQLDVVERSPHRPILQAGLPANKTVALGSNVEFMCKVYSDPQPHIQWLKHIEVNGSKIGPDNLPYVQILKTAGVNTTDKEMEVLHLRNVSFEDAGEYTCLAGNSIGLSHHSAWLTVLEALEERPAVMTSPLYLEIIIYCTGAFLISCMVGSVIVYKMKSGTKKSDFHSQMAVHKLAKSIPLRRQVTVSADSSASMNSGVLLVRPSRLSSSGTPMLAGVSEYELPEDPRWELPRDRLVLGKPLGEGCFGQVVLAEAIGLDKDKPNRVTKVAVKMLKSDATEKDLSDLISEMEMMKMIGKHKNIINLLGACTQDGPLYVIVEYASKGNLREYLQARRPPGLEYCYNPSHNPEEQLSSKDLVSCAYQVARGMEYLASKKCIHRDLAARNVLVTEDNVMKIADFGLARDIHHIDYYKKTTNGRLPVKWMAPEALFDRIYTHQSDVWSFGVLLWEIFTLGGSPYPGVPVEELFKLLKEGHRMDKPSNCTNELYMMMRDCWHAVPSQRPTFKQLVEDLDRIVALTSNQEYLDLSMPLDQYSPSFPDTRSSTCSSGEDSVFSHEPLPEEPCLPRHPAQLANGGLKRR

FGFR3 = FGFR3 (UniProt P22607); test: as above
Fer (mouse) = test: as above
Fes = Fes (UniProt P07332); test: as above
Fyn = Fyn (UniProt P06241); test: as above
Hck = Hck (UniProt P08631); test: as above
Sequence of Hck (P08631 whole entry, looked up): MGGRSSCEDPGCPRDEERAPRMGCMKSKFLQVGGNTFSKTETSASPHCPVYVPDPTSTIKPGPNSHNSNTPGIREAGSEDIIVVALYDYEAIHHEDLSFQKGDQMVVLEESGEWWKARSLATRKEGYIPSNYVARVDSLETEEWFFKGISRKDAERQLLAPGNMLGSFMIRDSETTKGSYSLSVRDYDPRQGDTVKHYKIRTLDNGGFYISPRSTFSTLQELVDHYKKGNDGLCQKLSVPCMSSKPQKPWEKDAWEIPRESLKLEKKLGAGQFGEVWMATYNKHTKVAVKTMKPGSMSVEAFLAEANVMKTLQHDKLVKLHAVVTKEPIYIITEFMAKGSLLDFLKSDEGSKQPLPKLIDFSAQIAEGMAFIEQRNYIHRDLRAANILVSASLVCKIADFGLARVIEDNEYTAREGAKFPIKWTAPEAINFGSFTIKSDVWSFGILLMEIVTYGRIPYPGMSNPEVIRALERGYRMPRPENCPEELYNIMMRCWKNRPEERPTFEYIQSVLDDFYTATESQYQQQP

Jak2 = Jak2 (UniProt O60674); test: as above
Sequence of Jak2 (O60674 whole entry, looked up): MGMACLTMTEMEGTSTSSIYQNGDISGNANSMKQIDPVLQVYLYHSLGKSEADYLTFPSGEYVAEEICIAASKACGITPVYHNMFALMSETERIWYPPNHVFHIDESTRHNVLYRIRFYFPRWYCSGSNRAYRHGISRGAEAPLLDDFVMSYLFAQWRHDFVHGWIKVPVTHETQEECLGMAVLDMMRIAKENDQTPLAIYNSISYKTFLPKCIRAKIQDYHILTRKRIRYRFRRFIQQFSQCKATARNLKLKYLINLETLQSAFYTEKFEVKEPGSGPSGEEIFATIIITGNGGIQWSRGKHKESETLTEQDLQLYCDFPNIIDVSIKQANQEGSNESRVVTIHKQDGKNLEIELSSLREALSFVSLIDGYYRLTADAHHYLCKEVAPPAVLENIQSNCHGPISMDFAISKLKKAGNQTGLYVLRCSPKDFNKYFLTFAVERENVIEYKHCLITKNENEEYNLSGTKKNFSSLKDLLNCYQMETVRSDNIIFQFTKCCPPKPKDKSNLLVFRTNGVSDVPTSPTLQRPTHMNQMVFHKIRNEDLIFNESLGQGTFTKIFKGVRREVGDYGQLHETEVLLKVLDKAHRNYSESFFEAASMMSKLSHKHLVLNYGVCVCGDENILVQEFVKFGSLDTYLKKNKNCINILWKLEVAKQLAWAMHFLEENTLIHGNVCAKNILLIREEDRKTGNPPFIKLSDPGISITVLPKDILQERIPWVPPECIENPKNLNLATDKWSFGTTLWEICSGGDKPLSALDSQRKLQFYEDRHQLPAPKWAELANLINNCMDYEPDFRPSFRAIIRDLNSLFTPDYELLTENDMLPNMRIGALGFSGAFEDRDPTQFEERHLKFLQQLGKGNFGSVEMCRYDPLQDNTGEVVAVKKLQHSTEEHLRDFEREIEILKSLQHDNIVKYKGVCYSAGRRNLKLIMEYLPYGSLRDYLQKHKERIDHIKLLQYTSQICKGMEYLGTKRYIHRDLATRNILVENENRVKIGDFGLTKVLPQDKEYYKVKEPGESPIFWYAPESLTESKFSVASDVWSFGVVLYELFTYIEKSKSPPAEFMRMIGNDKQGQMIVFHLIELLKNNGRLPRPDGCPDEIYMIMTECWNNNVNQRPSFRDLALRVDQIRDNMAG

MERTK = MERTK (UniProt Q12866); test: as above
c-Abl (mouse) = test: as above
c-Src = test: as above
Grb2 SH2 = Grb2 SH2 (UniProt P62993); test: SH2 binding enrichment of the phosphorylated peptide, bacterial display (enrichment ratio); higher = better substrate or ligand; peptides without Tyr show the background
Sequence of Grb2 SH2 (P62993 whole entry, looked up): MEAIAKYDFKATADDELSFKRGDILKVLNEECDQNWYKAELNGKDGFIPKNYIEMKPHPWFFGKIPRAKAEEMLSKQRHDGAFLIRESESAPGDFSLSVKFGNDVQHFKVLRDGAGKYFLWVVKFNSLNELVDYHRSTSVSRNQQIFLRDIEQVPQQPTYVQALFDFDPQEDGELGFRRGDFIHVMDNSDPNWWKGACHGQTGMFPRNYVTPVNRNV

SHP2-C SH2 = test: as above
c-Src SH2 = test: as above
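For SH2 binding enrichment of the phosphorylated peptide, bacterial display in this document: peptide library displayed on the E. coli surface as eCPX fusions, selected cells deep-sequenced, score is each peptide's frequency after selection divided by its frequency in the input.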
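For phosphorylation enrichment, bacterial display in this document: 11-residue human phosphosite peptides and single-mutation variants displayed on the E. coli surface, counted by deep sequencing, each peptide's frequency after selection divided by its frequency in the unselected input library; frequency after pTyr selection over input frequency; kinase dosed for 20-30% of maximal phosphorylation in three min.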

Sequence of EPHB2 (P29323 whole entry, looked up): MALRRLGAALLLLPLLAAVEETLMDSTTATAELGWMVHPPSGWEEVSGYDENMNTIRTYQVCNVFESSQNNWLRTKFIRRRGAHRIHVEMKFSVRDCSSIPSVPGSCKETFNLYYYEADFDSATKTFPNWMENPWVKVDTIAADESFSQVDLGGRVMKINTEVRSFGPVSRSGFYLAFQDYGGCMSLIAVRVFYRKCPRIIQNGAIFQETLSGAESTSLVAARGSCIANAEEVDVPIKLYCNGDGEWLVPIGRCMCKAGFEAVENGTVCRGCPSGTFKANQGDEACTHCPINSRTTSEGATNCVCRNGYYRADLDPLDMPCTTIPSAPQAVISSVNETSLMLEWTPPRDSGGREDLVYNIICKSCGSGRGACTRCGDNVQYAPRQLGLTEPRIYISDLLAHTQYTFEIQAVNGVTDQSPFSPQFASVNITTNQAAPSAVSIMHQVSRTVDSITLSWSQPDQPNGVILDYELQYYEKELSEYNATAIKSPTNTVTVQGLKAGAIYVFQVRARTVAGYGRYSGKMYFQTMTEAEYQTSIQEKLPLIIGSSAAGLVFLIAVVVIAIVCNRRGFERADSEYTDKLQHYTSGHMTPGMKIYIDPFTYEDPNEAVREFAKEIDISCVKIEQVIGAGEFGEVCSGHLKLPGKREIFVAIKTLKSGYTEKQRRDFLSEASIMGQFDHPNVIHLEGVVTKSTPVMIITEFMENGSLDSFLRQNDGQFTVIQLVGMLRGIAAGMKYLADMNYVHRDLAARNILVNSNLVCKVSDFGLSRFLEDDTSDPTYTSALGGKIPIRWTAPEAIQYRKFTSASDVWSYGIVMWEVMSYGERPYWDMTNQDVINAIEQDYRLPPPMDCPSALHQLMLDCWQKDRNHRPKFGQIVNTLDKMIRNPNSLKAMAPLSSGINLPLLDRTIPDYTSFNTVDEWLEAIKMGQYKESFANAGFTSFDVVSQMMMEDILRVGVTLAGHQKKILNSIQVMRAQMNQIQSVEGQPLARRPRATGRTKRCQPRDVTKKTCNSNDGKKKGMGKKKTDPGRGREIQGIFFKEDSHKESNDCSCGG
Sequence of EPHB1 (P54762 whole entry, looked up): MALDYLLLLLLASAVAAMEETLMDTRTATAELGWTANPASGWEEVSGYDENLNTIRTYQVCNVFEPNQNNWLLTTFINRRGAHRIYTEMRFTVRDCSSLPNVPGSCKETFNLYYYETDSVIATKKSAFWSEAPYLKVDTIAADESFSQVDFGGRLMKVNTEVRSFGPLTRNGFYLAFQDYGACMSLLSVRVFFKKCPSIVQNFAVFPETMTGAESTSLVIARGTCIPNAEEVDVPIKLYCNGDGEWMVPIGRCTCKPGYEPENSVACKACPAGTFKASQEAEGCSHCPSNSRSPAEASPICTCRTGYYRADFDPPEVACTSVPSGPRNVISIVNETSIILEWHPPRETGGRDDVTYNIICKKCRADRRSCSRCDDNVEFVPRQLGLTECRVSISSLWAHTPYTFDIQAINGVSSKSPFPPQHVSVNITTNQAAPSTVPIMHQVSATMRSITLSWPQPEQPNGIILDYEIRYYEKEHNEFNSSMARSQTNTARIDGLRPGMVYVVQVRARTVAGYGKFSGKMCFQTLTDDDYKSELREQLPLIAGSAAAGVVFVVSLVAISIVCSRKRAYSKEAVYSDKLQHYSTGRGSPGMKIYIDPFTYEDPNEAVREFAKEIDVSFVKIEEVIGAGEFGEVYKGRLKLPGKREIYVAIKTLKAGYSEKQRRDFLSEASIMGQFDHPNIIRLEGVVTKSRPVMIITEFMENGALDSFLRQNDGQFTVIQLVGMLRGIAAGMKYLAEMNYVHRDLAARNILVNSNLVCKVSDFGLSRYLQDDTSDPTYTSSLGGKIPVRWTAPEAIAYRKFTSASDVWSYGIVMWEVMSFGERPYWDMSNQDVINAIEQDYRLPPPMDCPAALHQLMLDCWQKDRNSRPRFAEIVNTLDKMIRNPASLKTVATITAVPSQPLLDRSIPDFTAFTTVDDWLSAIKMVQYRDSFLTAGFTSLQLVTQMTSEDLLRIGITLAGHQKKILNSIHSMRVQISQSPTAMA

| Sequence | phosphorylation enrichment (AncSZ) | phosphorylation enrichment (EPHB1) | phosphorylation enrichment (EPHB2) | phosphorylation enrichment (FGFR1) | phosphorylation enrichment (FGFR3) | phosphorylation enrichment (Fer (mouse)) | phosphorylation enrichment (Fes) | phosphorylation enrichment (Fyn) | phosphorylation enrichment (Hck) | phosphorylation enrichment (Jak2) | phosphorylation enrichment (MERTK) | phosphorylation enrichment (c-Abl (mouse)) | phosphorylation enrichment (c-Src) | SH2 binding enrichment (Grb2 SH2) | SH2 binding enrichment (SHP2-C SH2) | SH2 binding enrichment (c-Src SH2) |
| --- | --- | --- | --- | --- | --- | --- | --- | --- | --- | --- | --- | --- | --- | --- | --- | --- |
| AVARPYHIQKW [ACSBG1_Y677_A673V] | 0.643 | 0.381 | 0.358 | 0.468 | 0.506 | 0.332 | 0.584 | 0.391 | 0.402 | 0.461 | 0.362 | 0.573 | 0.401 | 1.85 | 1.31 | 1.27 |
| AVLQPYIFVAT [CFTR_Y1014] | 1.56 | 0.84 | 0.804 | 1.2 | 1.41 | 0.674 | 1.69 | 0.606 | 0.586 | 1.84 | 0.55 | 0.978 | 0.701 | 0.65 | 0.545 | 0.329 |
| AVLSLYASDRT [ACTA1_Y145_G148D] | 0.967 | 0.662 | 0.664 | 0.476 | 0.666 | 0.515 | 1.14 | 0.637 | 0.538 | 0.884 | 0.446 | 0.893 | 0.465 | 0.895 | 0.88 | 0.452 |
| AYGNLYGSRKQ [YIPF7_Y59] | 0.525 | 0.324 | 0.3 | 0.484 | 0.481 | 0.367 | 0.462 | 1.38 | 6.04 | 0.516 | 0.502 | 0.442 | 2.08 | 0.748 | 0.584 | 0.593 |
| CDGKEYDPVEA [MAPRE2_Y167_Y162C] | 1.36 | 0.64 | 0.66 | 0.594 | 0.721 | 0.65 | 1.66 | 0.598 | 0.567 | 1.54 | 0.541 | 0.883 | 0.649 | 0.714 | 0.891 | 0.615 |
| CDLTDYLMKIL [ACTA1_Y190_R185C] | 1.39 | 0.791 | 0.75 | 0.476 | 1.02 | 0.541 | 1.7 | 0.478 | 0.587 | 1.13 | 0.416 | 0.83 | 0.394 | 0.973 | 0.647 | 0.664 |
| CEAIEYLESKQ [BTK_Y511_M509I] | 1.29 | 0.631 | 0.553 | 0.574 | 0.835 | 0.521 | 1.39 | 0.485 | 0.552 | 1.33 | 0.461 | 0.816 | 0.549 | 0.774 | 0.738 | 0.64 |
| CEAMEYPESKQ [BTK_Y511_L512P] | 1.28 | 0.676 | 0.735 | 0.571 | 0.736 | 0.705 | 1.42 | 0.543 | 0.572 | 1.3 | 0.46 | 0.952 | 0.548 | 0.976 | 0.728 | 0.66 |
| CERFSYYGMKA [SLC15A2_Y60] | 1.59 | 0.843 | 0.611 | 3.72 | 2.88 | 0.558 | 1.04 | 0.689 | 1.16 | 3.12 | 0.665 | 0.737 | 1.1 | 0.843 | 0.799 | 1.08 |
| CGADSYEMEED [EGFR_Y316] | 1.57 | 0.685 | 0.72 | 0.536 | 0.899 | 0.533 | 1.27 | 0.534 | 0.705 | 1.08 | 0.549 | 0.827 | 0.483 | 0.825 | 0.652 | 0.797 |
| CGTPTCLAPEV [CHEK2_Y390_Y390C] | 1.18 | 0.545 | 0.695 | 0.566 | 0.627 | 0.54 | 1.1 | 0.504 | 0.436 | 0.816 | 0.491 | 0.759 | 0.454 | 0.904 | 0.932 | 0.608 |
| CNPLRYPVLMS [OR2T1_Y182] | 0.839 | 0.549 | 0.567 | 0.476 | 0.621 | 0.453 | 0.913 | 0.5 | 0.518 | 0.758 | 0.428 | 0.896 | 0.498 | 0.975 | 0.875 | 0.742 |
| CNRADYSKLAS [GNE_Y22_P27S] | 1.04 | 0.393 | 0.572 | 0.367 | 0.47 | 0.398 | 0.95 | 0.377 | 0.376 | 0.621 | 0.441 | 0.453 | 0.369 | 0.874 | 0.625 | 0.938 |
| CNTIHYNYMCN [TP53_Y234_T230N] | 0.897 | 0.575 | 0.581 | 0.586 | 0.653 | 0.554 | 0.865 | 0.413 | 0.428 | 0.799 | 0.521 | 0.713 | 0.532 | 0.937 | 4.68 | 6.74 |
| CPYNLYAEQLS [HGD_Y40] | 1.74 | 2.68 | 2.18 | 0.741 | 0.988 | 1.36 | 1.34 | 3.15 | 2.39 | 1.39 | 2.67 | 0.936 | 6.33 | 0.905 | 0.737 | 0.705 |
| CSGNCYLDIRP [FBN1_Y1535_R1530C] | 0.591 | 0.452 | 0.442 | 0.646 | 0.532 | 0.404 | 0.646 | 0.446 | 0.504 | 0.514 | 0.49 | 0.509 | 0.609 | 1.19 | 1.07 | 1.37 |
| CSKRFYQLTKL [AR_Y858_R855K] | 0.75 | 0.545 | 0.44 | 0.401 | 0.556 | 0.492 | 0.888 | 0.454 | 0.424 | 0.706 | 0.47 | 0.587 | 0.449 | 1.08 | 0.874 | 0.777 |

| Sequence | phosphorylation enrichment (AncSZ) | phosphorylation enrichment (EPHB1) | phosphorylation enrichment (EPHB2) | phosphorylation enrichment (FGFR1) | phosphorylation enrichment (FGFR3) | phosphorylation enrichment (Fer (mouse)) | phosphorylation enrichment (Fes) | phosphorylation enrichment (Fyn) | phosphorylation enrichment (Hck) | phosphorylation enrichment (Jak2) | phosphorylation enrichment (MERTK) | phosphorylation enrichment (c-Abl (mouse)) | phosphorylation enrichment (c-Src) | SH2 binding enrichment (Grb2 SH2) | SH2 binding enrichment (SHP2-C SH2) | SH2 binding enrichment (c-Src SH2) |
| --- | --- | --- | --- | --- | --- | --- | --- | --- | --- | --- | --- | --- | --- | --- | --- | --- |
| CTTIHNNFMCN [TP53_Y234_Y234N_YF] | 0.879 | 0.606 | 0.591 | 0.51 | 0.623 | 0.558 | 0.974 | 0.507 | 0.517 | 0.95 | 0.459 | 0.593 | 0.439 | 1.15 | 1.32 | 1.07 |
| CTTIHYMFMCN [TP53_Y234_N235M_YF] | 1.05 | 0.608 | 0.668 | 0.526 | 0.659 | 0.555 | 1.22 | 0.445 | 0.552 | 1.02 | 0.367 | 0.673 | 0.38 | 1.38 | 1.51 | 1 |
| CTTIHYNFKCN [TP53_Y234_M237K_YF] | 0.795 | 0.381 | 0.392 | 0.472 | 0.494 | 0.386 | 0.75 | 0.405 | 0.476 | 0.545 | 0.425 | 0.51 | 0.411 | 1.23 | 1.5 | 1.23 |
| CTTIHYNYICN [TP53_Y234_M237I] | 0.864 | 0.513 | 0.505 | 0.587 | 0.654 | 0.654 | 0.91 | 0.457 | 0.521 | 0.682 | 0.518 | 0.519 | 0.532 | 1.75 | 4.45 | 9.21 |
| CTTILYNFMCN [TP53_Y234_H233L_YF] | 0.96 | 0.584 | 0.622 | 0.601 | 0.806 | 0.87 | 1.22 | 1.03 | 0.979 | 0.957 | 1.68 | 0.7 | 2.16 | 2.3 | 2.2 | 1.79 |
| CTTIQYNFMCN [TP53_Y234_H233Q_YF] | 0.969 | 0.499 | 0.49 | 0.586 | 0.689 | 0.485 | 1.01 | 0.494 | 0.611 | 0.853 | 0.438 | 0.593 | 0.5 | 2.22 | 1.68 | 1.87 |
| CTTLHYNFMCN [TP53_Y234_I232L_YF] | 0.718 | 0.361 | 0.406 | 0.567 | 0.534 | 0.708 | 0.78 | 0.391 | 0.395 | 0.758 | 0.424 | 0.545 | 0.538 | 1.53 | 1.64 | 2.26 |
| CTTTHYNFMCN [TP53_Y234_I232T_YF] | 0.758 | 0.397 | 0.427 | 0.403 | 0.557 | 0.466 | 0.758 | 0.437 | 0.469 | 0.561 | 0.393 | 0.484 | 0.375 | 1.27 | 1.79 | 3.48 |
| CTTTHYNYMCN [TP53_Y234_I232T] | 0.708 | 0.563 | 0.592 | 0.551 | 0.533 | 0.446 | 0.722 | 0.441 | 0.497 | 0.58 | 0.391 | 0.484 | 0.424 | 0.951 | 3.73 | 10.6 |
| CTTVHYNFMCN [TP53_Y234_I232V_YF] | 0.769 | 0.458 | 0.52 | 0.472 | 0.673 | 0.598 | 0.901 | 0.499 | 0.445 | 0.622 | 0.384 | 0.687 | 0.499 | 1.61 | 2.38 | 2.66 |
| DAVCYYRMENA [NPHS2_Y195_I192V] | 1.9 | 0.622 | 0.588 | 7.53 | 6.2 | 0.704 | 1.1 | 1.34 | 1.37 | 6.76 | 1.82 | 0.956 | 3.44 | 0.676 | 0.648 | 0.548 |
| DAVKHYMQFQK [CNGA2_Y395_R399Q] | 0.548 | 0.451 | 0.301 | 0.348 | 0.449 | 0.424 | 0.496 | 0.429 | 0.552 | 0.461 | 0.473 | 0.356 | 0.485 | 0.768 | 0.781 | 0.62 |
| DCAAIYGNEPE [AKR1A1_Y50] | 1.27 | 0.612 | 0.694 | 0.588 | 0.734 | 0.672 | 1.22 | 1.02 | 0.897 | 1.42 | 0.806 | 0.799 | 1.42 | 0.966 | 0.689 | 0.72 |
| DDYDLYGGEKF [PTPN11_Y66_Y62D] | 1.51 | 0.915 | 2.85 | 0.507 | 0.681 | 0.957 | 1.1 | 1.7 | 2.25 | 0.963 | 0.439 | 0.871 | 2.07 | 0.76 | 0.59 | 0.553 |
| DEDYLYREELA [POR_Y575] | 1.61 | 0.71 | 0.647 | 0.814 | 1.18 | 0.61 | 1.36 | 0.579 | 0.642 | 1.25 | 0.502 | 0.903 | 0.535 | 0.904 | 0.881 | 0.501 |
| DEFLEYRRIVG [FAM221A_Y20_YF] | 0.83 | 0.469 | 0.439 | 0.466 | 0.551 | 0.526 | 1.17 | 0.505 | 0.537 | 0.964 | 0.493 | 0.797 | 0.507 | 0.945 | 1 | 0.53 |
